According to patent US20060040324A1:
Each block holds one molecule with its values, some of them ahead of it. Where no end group is shown, it is not given here. [ ]: non-standard residue; d: D form.

Legend:
tuftsin receptor (human) [1] = test: competition with trace 99mTc-labeled peptide on formalin-fixed human PMN leukocytes
tuftsin receptor (human) [2] = test: competition with 99mTc-labeled peptide on HL-60 cells
[3] = molecular target: GP IIb/IIIa platelet receptor (integrin heterodimeric glycoprotein IIb/IIIa) (human) (UniProt P08514); test: competition with trace 99mTc-labeled peptide on activated formalin-fixed human platelets
tuftsin receptor (human) [4] = test: radioligand saturation binding, fresh and formalin-fixed HL-60 cells, filtration
tuftsin receptor (human) [5] = test: radioligand saturation binding, fresh and formalin-fixed human PMN leukocytes, filtration
[6] = molecular target: GP IIb/IIIa platelet receptor (integrin heterodimeric glycoprotein IIb/IIIa) (human) (UniProt P08514); test: radioligand saturation binding, ADP-activated formalin-fixed human platelets, filtration
[7] = molecular target: GP IIb/IIIa platelet receptor (integrin heterodimeric glycoprotein IIb/IIIa) (human) (UniProt P08514); test: radioligand saturation binding to human blood clots, carrier-free preparation
[8] = molecular target: GP IIb/IIIa platelet receptor (integrin heterodimeric glycoprotein IIb/IIIa) (human) (UniProt P08514); test: radioligand saturation binding, ADP-activated human platelets in platelet rich plasma, filtration
[9] = molecular target: GP IIb/IIIa platelet receptor (integrin heterodimeric glycoprotein IIb/IIIa) (human) (UniProt P08514); test: radioligand saturation binding to fresh human blood clots
tuftsin receptor (human) [10] = test: cell-based or functional assay
tuftsin receptor (human) [11] = test: competition with 99mTc-labeled peptide on HL-60 cells; remark: listed apart in the source
tuftsin receptor (human) [12] = test: binding to human leukocytes

UniProt P08514, sequence (P08514 32-1039, chain 1 of 2): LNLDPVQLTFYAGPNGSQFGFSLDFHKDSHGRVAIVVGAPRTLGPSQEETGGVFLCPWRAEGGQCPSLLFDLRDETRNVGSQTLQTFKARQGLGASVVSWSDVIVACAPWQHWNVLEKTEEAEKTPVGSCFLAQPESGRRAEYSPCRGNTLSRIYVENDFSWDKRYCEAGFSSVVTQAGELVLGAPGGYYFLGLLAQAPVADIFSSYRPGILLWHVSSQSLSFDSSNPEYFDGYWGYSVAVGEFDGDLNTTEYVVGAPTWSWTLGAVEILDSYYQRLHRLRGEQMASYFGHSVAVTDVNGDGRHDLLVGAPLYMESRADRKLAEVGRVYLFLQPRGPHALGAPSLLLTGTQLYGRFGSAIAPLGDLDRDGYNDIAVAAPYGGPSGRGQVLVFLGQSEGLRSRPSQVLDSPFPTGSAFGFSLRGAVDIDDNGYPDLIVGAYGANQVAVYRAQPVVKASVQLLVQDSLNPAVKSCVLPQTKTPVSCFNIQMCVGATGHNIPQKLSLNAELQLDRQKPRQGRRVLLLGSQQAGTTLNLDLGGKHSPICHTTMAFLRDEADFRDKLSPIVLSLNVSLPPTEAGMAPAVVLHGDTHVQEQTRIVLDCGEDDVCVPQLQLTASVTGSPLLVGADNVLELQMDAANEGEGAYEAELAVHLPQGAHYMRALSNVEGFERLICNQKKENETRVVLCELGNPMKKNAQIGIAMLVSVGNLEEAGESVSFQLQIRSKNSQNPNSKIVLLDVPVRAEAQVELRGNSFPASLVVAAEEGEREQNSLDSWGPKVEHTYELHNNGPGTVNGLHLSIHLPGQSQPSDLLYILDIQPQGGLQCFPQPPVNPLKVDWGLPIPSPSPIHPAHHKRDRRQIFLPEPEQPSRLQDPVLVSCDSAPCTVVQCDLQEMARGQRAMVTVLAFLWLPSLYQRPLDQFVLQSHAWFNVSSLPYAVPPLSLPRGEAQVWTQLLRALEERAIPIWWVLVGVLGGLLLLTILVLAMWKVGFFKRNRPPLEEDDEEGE
UniProt P08514, sequence (P05106 27-788, chain 2 of 2, further chain): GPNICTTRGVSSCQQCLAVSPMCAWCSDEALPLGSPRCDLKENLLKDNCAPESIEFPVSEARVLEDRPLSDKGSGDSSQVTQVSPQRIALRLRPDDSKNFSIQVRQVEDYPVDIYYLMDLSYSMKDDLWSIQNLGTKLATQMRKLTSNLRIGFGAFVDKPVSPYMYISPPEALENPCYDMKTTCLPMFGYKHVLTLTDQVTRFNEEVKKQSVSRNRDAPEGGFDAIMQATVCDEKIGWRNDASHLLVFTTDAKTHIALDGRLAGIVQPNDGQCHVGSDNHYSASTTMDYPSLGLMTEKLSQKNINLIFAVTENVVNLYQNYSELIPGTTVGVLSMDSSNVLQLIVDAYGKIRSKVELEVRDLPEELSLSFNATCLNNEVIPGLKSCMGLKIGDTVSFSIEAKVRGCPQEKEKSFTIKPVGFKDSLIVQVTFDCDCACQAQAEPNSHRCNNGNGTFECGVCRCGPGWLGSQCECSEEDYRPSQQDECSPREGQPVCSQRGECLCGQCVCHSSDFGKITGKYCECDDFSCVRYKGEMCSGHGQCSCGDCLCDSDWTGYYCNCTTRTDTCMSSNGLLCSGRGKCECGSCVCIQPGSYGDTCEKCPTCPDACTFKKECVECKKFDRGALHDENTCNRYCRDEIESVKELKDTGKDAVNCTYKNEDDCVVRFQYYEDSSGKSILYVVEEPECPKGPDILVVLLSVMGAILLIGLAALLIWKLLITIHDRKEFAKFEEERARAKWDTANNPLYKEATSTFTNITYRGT

Molecule: ^99Tc-Thr-[D-Lys-Gly-D-Cys]-Arg (peptide)
IC50 (tuftsin receptor (human) [1]): 1 to 5 nM
IC50 (tuftsin receptor (human) [2]): 1 to 5 nM

Molecule: ^99mTc-Thr-[D-Lys-Gly-D-Cys]-Arg (peptide)
Kd (tuftsin receptor (human) [4]): 1 to 5 nM
Kd (tuftsin receptor (human) [5]): 1 to 5 nM

Molecule: ^99mTc-labeled PEG8000-D-Arg-Gly-D-Cys-β-Ala (peptide)
Kd [9]: 5 to 20 nM

Molecule: T[dK]G[dC]R [Thr-D-Lys-Gly-D-Cys-Arg (unlabeled, not complexed to a metal ion)]
IC50 (tuftsin receptor (human) [1]): 2000 to 5000 nM
Kd (tuftsin receptor (human) [12]): 100000 nM

Other lines, results leading:

IC50 [3]: 5 to 10 nM
Molecule: ^99Tc-[D-Arg-Gly-D-Cys]-β-Ala (peptide)

Kd [6]: 5 to 10 nM
Kd [7]: 5 to 10 nM
Kd [8]: 5 to 10 nM
Kd [9]: 5 to 10 nM
Molecule: ^99mTc-[D-Arg-Gly-D-Cys]-β-Ala (peptide)

nitroblue tetrazolium dye reduction (hexose monophosphate shunt activity) in human PMN granulocytes: concentration of maximal stimulation (tuftsin receptor (human) [10]): 100 nM
IC50 (tuftsin receptor (human) [1]): 100 nM
IC50 (tuftsin receptor (human) [11]): 100 nM
Molecule: TKPR [natural tuftsin Thr-Lys-Pro-Arg]

nitroblue tetrazolium dye reduction (hexose monophosphate shunt activity) in human PMN granulocytes: concentration of maximum stimulation (tuftsin receptor (human) [10]): 1 to 5 nM
stimulation of phagocytosis of heat inactivated yeast cells by human PMN granulocytes: concentration of maximal stimulation (tuftsin receptor (human) [10]): 1 nM
Molecule: T[dK]G[dC]R (also: ReO[V] complexed to D-Lys-Gly-D-Cys) [Thr-ReO[V]-[D-Lys-Gly-D-Cys]-Arg]
